Consider 21 variants from the supplement of paper PMC7125110.

B1: glmS ribozyme (parent)
chain: AUAAAAGCGCCAGAACUACAGAAAUGUAGUUGACGAGGAGGAGGUUUAUCGAAUUUUCGGCGGAUGCCUCCAAA

Common to all, as to settings: with glucosamine-6-phosphate
Series [1] covers variants of B1. Description: self-cleavage kobs at 640 uM GlcN6P; higher = faster cleavage; RNA array. The procedure, abridged:
(§1)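 Barcoded ribozyme variants on sequenced MiSeq chips were transcribed in situ by E. coli RNA polymerase and followed at 37 °C through a hybridised Cy3 probe. Glucosamine-6-phosphate at 40 μM to 10 mM in HEPES/KCl/Mg(OAc)2 buffer was flowed in, and tiles were imaged over ~14 h. Signals were normalised to baseline and to non-cleaving reference variants, and per-tile medians were fit to one- or two-exponential decays to give kobs. Weighted Michaelis–Menten fits across concentrations gave kcat and KM.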

Variants of B1 are the subject of series [2]. Description: self-cleavage kobs at 2500 uM GlcN6P; higher = faster cleavage; RNA array. The procedure, abridged: as §1
Series [3] covers variants of B1. Description: self-cleavage kobs at 10000 uM GlcN6P; higher = faster cleavage; RNA array. The method, boiled down:
as §1

± gives the standard error. Variants at the floor of the assay were thinned out.

Regarding AUAAAAGCGCCAGGACUACAGAAAUGUAGUUGACGAGGAGGAGGUUUAUCGAAAUUUAGGCGGAUGCUUCCAAA [A14G U54A C58A C68U], the “self-cleavage kobs at 640 uM GlcN6P” value in series [1] worked out at 9.22e-05 ± 1.9e-05 s⁻¹. The “self-cleavage kobs at 2500 uM GlcN6P” value in series [2] stood at 0.000131 ± 2.9e-05 s⁻¹.

On to AUAAAUGCGCCAGAACUACAGAAAUGUAAUAGACGAGGAGGACGUGUAUCGAAUUUUGGGCGGAUGCCUCCAAA [A6U G29A U31A G43C U46G C58G], for which, in series [1], the “self-cleavage kobs at 640 uM GlcN6P” value was below 1e-05 s⁻¹. The “self-cleavage kobs at 2500 uM GlcN6P” value in series [2] was below 1e-05 s⁻¹.

As to AUAAAAGCGCCAGAACUACAGAAAUGUAGUCGACGAGGAGGAGGUUUAUCCAAUUUUCGGCGGAUGCCUCAAAA [U31C G51C C71A], in series [1], the “self-cleavage kobs at 640 uM GlcN6P” value was below 1e-05 s⁻¹.

In the case of AUAAAAGCUCCAGCACUACAGAAAUGUAGUUGACGAGGAGGAGGUUUAUCGAUUUUUCGGCAGAUGGCUCCAAA [G9U A14C A53U G62A C67G], the “self-cleavage kobs at 640 uM GlcN6P” value in series [1] was below 1e-05 s⁻¹. Besides, the “self-cleavage kobs at 2500 uM GlcN6P” value in series [2] is below 1e-05 s⁻¹.

As to AUAAAAGCGCCAGAACUACAGAAAUGUAGAUGACGAGGAUGAGGUUUAUCGAAUUUUCGGCGAGUGCCUCCAAA [U30A G40U G63A A64G], in series [1], the “self-cleavage kobs at 640 uM GlcN6P” value was below 1e-05 s⁻¹.

For AUAAAAUAGCCAGAACUACAGAAAUGUAGGUGACGAGGAGGAGCUUUAUCGAAUUUUCGGCGGAUGCCUCCAAA [G7U C8A U30G G44C], the “self-cleavage kobs at 640 uM GlcN6P” value in series [1] is below 1e-05 s⁻¹.

For the variant AUAAAAGCGCCAGAACUACAGAAAUGUAGUUGACGUGGAGGAGGUUUAUGGAAUUUUCGGCGGAUUCCUCCAAA [A36U C50G G66U], the “self-cleavage kobs at 640 uM GlcN6P” value in series [1] turned out to be 0.00107 ± 0.0003 s⁻¹.

AUAAAAGCGCCAGAACUACAGAAAUGUAGUUGACGACGGGGAGGAUUAACGAAUUUUCGGCGGAUGCCUCCAAA [G37C A39G U45A U49A]: the “self-cleavage kobs at 640 uM GlcN6P” value in series [1] was below 1e-05 s⁻¹. In series [2], the “self-cleavage kobs at 2500 uM GlcN6P” value was below 1e-05 s⁻¹.

With AUAAAAGCGCCGGAACUACAGAAAUGUAAUUGACGGGGAGGAGGUUUACCGAAUUUGCGGCGGAUGCCUACAAA [A12G G29A A36G U49C U57G C70A], the “self-cleavage kobs at 640 uM GlcN6P” value in series [1] is below 1e-05 s⁻¹.

AUAAAAGCGCCAGAACUACAGAAAUGUAGUUGACGAGGGGGAGGUUUAUCGAAUUUUCGGCGGCUGCCGCUAAA [A39G A64C U69G C71U]: the “self-cleavage kobs at 640 uM GlcN6P” value in series [1] is below 1e-05 s⁻¹. In addition, in series [2], the “self-cleavage kobs at 2500 uM GlcN6P” value was below 1e-05 s⁻¹.

As to AUAAAAGCACCAGAACUACAGAAAUGUAGUUCACGAGGAGGAGGUUUAUCGAAUUUUCGGUGGAUGCCUCCAAA [G9A G32C C61U], the “self-cleavage kobs at 640 uM GlcN6P” value in series [1] was below 1e-05 s⁻¹. Also, in series [3], the “self-cleavage kobs at 10000 uM GlcN6P” value is below 1e-05 s⁻¹.

For the variant AUAAAAGCGCGAGAACUACAGAAAUGUAGUAGACGAGGAGGAGGUUCAUCGAAUUUUCGGGGGAUGCCUCCAAA [C11G U31A U47C C61G], the “self-cleavage kobs at 640 uM GlcN6P” value in series [1] was below 1e-05 s⁻¹. In addition, the “self-cleavage kobs at 2500 uM GlcN6P” value in series [2] is below 1e-05 s⁻¹.

Turning to AUAAAAGCGCCAGAACUACAGAAAUGUAGUUGACGCGGAGGAGGUGUAUCGAAAGUUCGGCGGAUGCCUCCAAA [A36C U46G U54A U55G], in series [1], the “self-cleavage kobs at 640 uM GlcN6P” value was below 1e-05 s⁻¹.

For AUAAAAGCGCCAGAACUACAGAAAUGUAGUUGACGAGGAGAAGGUUUAUCGAAAUUUCGGCGGAUGCCUCCAAA [G41A U54A], the “self-cleavage kobs at 640 uM GlcN6P” value in series [1] stood at 0.000113 ± 2.9e-05 s⁻¹. The “self-cleavage kobs at 2500 uM GlcN6P” value in series [2] stood at 0.000311 ± 8.8e-05 s⁻¹. In series [3], the “self-cleavage kobs at 10000 uM GlcN6P” value was determined as 0.000101 ± 2.1e-05 s⁻¹.

Consider AUAAAAGCGCCAGAAUUACAGAAAUGUAGUUGACGAGGAGGAGGUUUAUCGAAUAUUCGGCGGAUGCGUCCAAA [C16U U55A C68G], for which the “self-cleavage kobs at 640 uM GlcN6P” value in series [1] turned out to be 8.37e-05 ± 1.4e-05 s⁻¹. Also, in series [2], the “self-cleavage kobs at 2500 uM GlcN6P” value was determined as 3.34e-05 ± 1e-05 s⁻¹. In series [3], the “self-cleavage kobs at 10000 uM GlcN6P” value was 7.42e-05 ± 1.8e-05 s⁻¹.

For the variant AUAAAAACGCCAGAACUACAGAAAUGUAGUUGACGAGGAGGAGGUUUAUCGAAUCUUGGGCGGAUGCCUCCAAA [G7A U55C C58G], the “self-cleavage kobs at 640 uM GlcN6P” value in series [1] is below 1e-05 s⁻¹.

Consider AUAAAAGCGCCGGAACUACAGAAAUGUAGUUUACGAGGAGGAGCUUUAUCGAAUUUUCGACGGAUGCCUGCAAA [A12G G32U G44C G60A C70G], for which the “self-cleavage kobs at 640 uM GlcN6P” value in series [1] is below 1e-05 s⁻¹.

For the variant AUAAAAGCGCCAGAACUACAGAAAUGUAGUUGACGGGGAGGAUGUUUAUCGAAUUUUCGGCGGAUGCCUCCAAA [A36G G43U], the “self-cleavage kobs at 640 uM GlcN6P” value in series [1] was below 1e-05 s⁻¹. Moreover, the “self-cleavage kobs at 10000 uM GlcN6P” value in series [3] was below 1e-05 s⁻¹.

Consider AUAAAAGCGCCAGAACUACAGAAAUGUAGUUGACGAGGAGGAGGUUUAUCGAAUUGACGGCGGAUGCCUCCAAA [U56G U57A], for which the “self-cleavage kobs at 640 uM GlcN6P” value in series [1] worked out at 6.17e-05 ± 1e-05 s⁻¹. In series [2], the “self-cleavage kobs at 2500 uM GlcN6P” value was determined as 0.000102 ± 1.2e-05 s⁻¹. For the same variant, in series [3], the “self-cleavage kobs at 10000 uM GlcN6P” value was 0.000326 ± 4.4e-05 s⁻¹.

For AUAAAAGCGCCAGAGCUACAGAAAUGUAGUUGACGAGGAGGAGGUUUUUCGAAUUUUCGGCGGAUGCCUGCAAA [A15G A48U C70G], in series [1], the “self-cleavage kobs at 640 uM GlcN6P” value worked out at 5.16e-05 ± 1.9e-05 s⁻¹. The “self-cleavage kobs at 2500 uM GlcN6P” value in series [2] is 6.9e-05 ± 1.6e-05 s⁻¹.

Consider AUAAAUGCGCCAGAACUACAGAAAUGUAGUUGACGAGGAGGAGGUUUAUCGAAUUCUCGGCGGAUGCGUCCAAA [A6U U56C C68G], for which, in series [1], the “self-cleavage kobs at 640 uM GlcN6P” value is below 1e-05 s⁻¹. In addition, the “self-cleavage kobs at 2500 uM GlcN6P” value in series [2] was below 1e-05 s⁻¹.
